Measured values reported in article PMC4398755, “Cloning and expressing a highly functional and substrate specific farnesoic acid o-methyltransferase from the Asian citrus psyllid (Diaphorina citri Kuwayama)” (FEBS Open Bio, 2015).

T1: DcFA-o-MT (Diaphorina citri, UniProt A0A075W3Z0)
T1 sequence (A0A075W3Z0 1-272): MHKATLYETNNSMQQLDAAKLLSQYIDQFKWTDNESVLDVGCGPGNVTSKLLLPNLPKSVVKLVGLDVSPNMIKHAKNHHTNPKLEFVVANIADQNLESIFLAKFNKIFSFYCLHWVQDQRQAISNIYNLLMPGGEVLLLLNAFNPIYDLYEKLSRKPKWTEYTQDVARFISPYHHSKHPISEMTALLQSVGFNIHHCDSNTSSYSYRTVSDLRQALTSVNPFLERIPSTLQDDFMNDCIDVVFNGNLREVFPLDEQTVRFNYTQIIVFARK

B1: DcFA-o-MT (Diaphorina citri) (protein)
chain: T1 sequence (A0A075W3Z0 1-272)

How the values were obtained:
Test in all cases: radiometric [3H]SAM methyl transfer, RP-HPLC / rapid biphasic separation
DcFA-o-MT = target: T1, DcFA-o-MT; type: biochemical; settings: 10 μM SAM (saturating), 50 mM Tris-HCl pH 7.9, 25 °C, 30 min; no metal added; 357 pmol enzyme in 100 μL, well above Km; substrate 1-20 μM
Text: (§1) radiometric [3H]SAM methyl transfer, RP-HPLC / rapid biphasic separation on DcFA-o-MT

[1] = substrate: C/C(=C\C(=O)O)CC/C=C(\C)CC[C@H]1OC1(C)C; type: biochemical, Diaphorina citri; settings: 10 μM SAM (saturating), 50 mM Tris-HCl pH 7.9, 25 °C, 30 min, no metal added, 357 pmol enzyme in 100 μL, well above Km, substrate 1-20 μM
Text: as §1

[2] = substrate: CC/C(=C\CC/C(C)=C\C(=O)O)CCC1OC1(C)CC; type: biochemical, Diaphorina citri; settings: 10 μM SAM (saturating), 50 mM Tris-HCl pH 7.9, 25 °C, 30 min, no metal added, 357 pmol enzyme in 100 μL, well above Km, substrate 1-20 μM, printed kcat/Km 143.4 does not match the printed Km and kcat
Text: as §1

[3] = substrate: CC(C)=CCC/C(C)=C/CC/C(C)=C/C(=O)O; type: biochemical, Diaphorina citri; settings: 10 μM SAM (saturating), 50 mM Tris-HCl pH 7.9, 25 °C, 30 min, no metal added, 357 pmol enzyme in 100 μL, well above Km, substrate 1-20 μM
Text: as §1

[4] = substrate: CC/C(=C/CC/C(C)=C/C(=O)O)CCC1OC1(C)CC; type: biochemical, Diaphorina citri; settings: 10 μM SAM (saturating), 50 mM Tris-HCl pH 7.9, 25 °C, 30 min, no metal added, 357 pmol enzyme in 100 μL, well above Km, substrate 1-20 μM, error exceeds value, text b19 says Km is 100-fold that of FA,
Text: as §1

| Molecule | Km (DcFA-o-MT) [µM] | Km [1] [µM] | Vmax [1] [µmol/min] | kcat [1] [s⁻¹] | kcat/Km [1] [M⁻¹ s⁻¹] | Km [2] [µM] | Vmax [2] [µmol/min] | Km [3] [µM] | Vmax [3] [µmol/min] | kcat [3] [s⁻¹] | kcat/Km [3] [M⁻¹ s⁻¹] | Km [4] [µM] | Vmax [4] [µmol/min] | kcat/Km [4] [M⁻¹ s⁻¹] |
| --- | --- | --- | --- | --- | --- | --- | --- | --- | --- | --- | --- | --- | --- | --- |
| homoFA | 0.02 ± 0.01 |  |  |  |  |  |  |  |  |  |  |  |  |  |
| B1 |  | 2.53 ± 0.72 | 2.8e-07 | 1.3e-05 ± 2e-06 | 5.14 | 5.65 ± 0.83 | 1.75e-06 | 0.46 ± 0.05 | 1.61e-05 | 0.00075 ± 3e-05 | 1640 | 4.58 ± 4.82 | 5e-08 | 0.66 |
